The values that follow come from PMC7354924.

Test [1] deals with bone morphogenetic protein 2 (BMP2) (human) (UniProt P12643). Nature of the test: SPR; ProteOn XPR36; BMP2 (570 RU) or GDF5 (470 RU) amine-coupled to a GLC sensor chip; ActR2b ectodomain perfused at 6 µM to 187.5 nM, 100 µl/min; 0.005% (v/v) Tween 20 buffer; Kd from the dose-dependency of equilibrium binding, one-site model; apparent. On the technique in general: In SPR one partner is held on a chip, and binding of the other changes the refractive index at the surface.
bone morphogenetic protein 2 (BMP2) (human), sequence (P12643 24-396): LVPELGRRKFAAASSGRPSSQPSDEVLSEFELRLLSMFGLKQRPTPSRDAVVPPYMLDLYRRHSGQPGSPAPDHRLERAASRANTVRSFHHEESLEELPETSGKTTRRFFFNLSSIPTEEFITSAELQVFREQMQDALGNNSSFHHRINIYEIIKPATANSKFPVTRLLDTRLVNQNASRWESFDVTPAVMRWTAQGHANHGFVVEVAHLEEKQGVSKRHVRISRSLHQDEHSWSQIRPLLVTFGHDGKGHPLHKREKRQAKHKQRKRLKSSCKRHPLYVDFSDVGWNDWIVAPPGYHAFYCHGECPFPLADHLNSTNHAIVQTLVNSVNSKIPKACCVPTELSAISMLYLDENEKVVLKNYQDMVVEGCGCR

The target in test [2] is GDF5 variant Tyr487Lys/Gln489Asp (UniProt P43026). As to the kind of experiment: SEC-MALS; RGMBND–GDF5(Tyr487Lys/Gln489Asp)–ActR2bECD complex, 1 mg/mL, Superdex 200 HR 10/30, 0.5 M NaCl, 20 mM Hepes pH 7.4, 21 °C. Background: SEC sorts molecules by how far they enter the pores of the column.
GDF5 variant Tyr487Lys/Gln489Asp, sequence (P43026 28-501 Y487K/Q489D): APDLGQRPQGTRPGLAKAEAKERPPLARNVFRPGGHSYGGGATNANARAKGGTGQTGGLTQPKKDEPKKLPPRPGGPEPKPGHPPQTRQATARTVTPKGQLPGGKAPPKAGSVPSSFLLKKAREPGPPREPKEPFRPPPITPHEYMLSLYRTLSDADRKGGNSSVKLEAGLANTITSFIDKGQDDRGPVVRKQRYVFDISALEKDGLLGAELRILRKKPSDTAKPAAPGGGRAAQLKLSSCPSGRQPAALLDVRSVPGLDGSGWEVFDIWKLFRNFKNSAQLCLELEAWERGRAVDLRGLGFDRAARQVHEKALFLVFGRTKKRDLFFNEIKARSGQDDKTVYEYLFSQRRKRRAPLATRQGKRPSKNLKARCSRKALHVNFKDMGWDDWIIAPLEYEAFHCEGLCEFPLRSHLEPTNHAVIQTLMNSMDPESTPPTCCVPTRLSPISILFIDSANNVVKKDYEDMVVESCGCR
The target in test [3] is growth differentiation factor 5 (GDF5), wild type (human) (UniProt P43026). Nature of the test: SPR; GDF5 wild type (500 RU), Arg438Ala (702 RU) or Arg438Leu (977 RU) amine-coupled to a GLC sensor chip; RGMECD proteins from FreeStyle 293 cells as analytes, six concentrations (log2 series from 40, 30, 20 or 10 nM), 100 µl/min; 20 mM HEPES pH 7.4, 500 mM NaCl, 3.4 mM EDTA, 0.005% (v/v) Tween 20; kon and koff fitted globally, Kd = koff/kon; two independent experiments; apparent.
growth differentiation factor 5 (GDF5), wild type (human), sequence (P43026 28-501): as the sequence (P43026 28-501 Y487K/Q489D) above, with K460Y, D462Q counted along it

Test [4] concerns the target GDF5 variant Arg438Ala (human) (UniProt P43026). Described as above.
The target in test [5] is GDF5 variant Arg438Leu (human) (UniProt P43026). Described as above.
GDF5 variant Arg438Leu (human), sequence (P43026 28-501 R438L): as the sequence (P43026 28-501 Y487K/Q489D) above, with R411L, K460Y, D462Q counted along it
Test [6] has as its target growth differentiation factor 5 (GDF5), wild type (human) (UniProt P43026).
In test [7] the target is bone morphogenetic protein 2 (BMP2) (human) (UniProt P12643).
Test [8] deals with growth differentiation factor 5 (GDF5), wild type (human) (UniProt P43026). As to the kind of experiment: SPR; ProteOn XPR36; BMP2 (570 RU), GDF5 (470 RU), TGF-β2 (300 RU) or activin A (350 RU) amine-coupled to a GLC sensor chip; analyte perfused (RGMB 50 to 1.56 nM at 150 or 100 µl/min; BMPR1A 1000 to 31.25 nM at 100 µl/min); 20 mM HEPES pH 7.4, 500 mM NaCl, 3.4 mM EDTA, 0.005% (v/v) Tween 20; 25 °C; Langmuir 1:1 kinetic fit (parameters local for RGMB), Kd = koff/kon; apparent.

Test [9] addresses bone morphogenetic protein 2 (BMP2) (human) (UniProt P12643). The description is as above.

Where only a bound is given, the exact number is not on record here.

The term koff denotes the first-order rate constant of dissociation. The kon is the second-order rate constant of association.

GDF5 variant Arg438Ala (human), sequence (P43026 28-501 R438A): as the sequence (P43026 28-501 Y487K/Q489D) above, with R411A, K460Y, D462Q counted along it

B1: murine activin type-2 receptor ActR2b, soluble ectodomain (residues Gly20 to Glu127) (receptor)
chain: GRGEAETRECIYYNANWELERTNQSGLERCEGEQDKRLHCYASWRNSSGTIELVKKGCWLDDFNCYDRQECVATEENPQVYFCCCEGNFCNERFTHLPEPGGPEVTYE
On to B1, for which, in test [1], the Kd amounted to 2700 nM.

B2: ActR2b extracellular domain (ActR2bECD) (receptor)
chain: SGRGEAETRECIYYNANWELERTNQSGLERCEGEQDKRLHCYASWRNSSGTIELVKKGCWLDDFNCYDRQECVATEENPQVYFCCCEGNFCNERFTHLPEAGGPEVTYEPPPTAPTLLT
B2 displayed a stoichiometry N (ActR2b per GDF5 dimer (2:2:2 by chains)) in test [2] of 2.

B3: full-length extracellular domain of RGMC (Gln36-Asp400) from FreeStyle 293 cells (domain or fragment)
chain: QCKILRCNAEYVSSTLSLRGGGSSGALRGGGGGGRGGGVGSGGLCRALRSYALCTRRTARTCRGDLAFHSAVHGIEDLMIQHNCSRQGPTAPPPPRGPALPGAGSGLPAPDPCDYEGRFSRLHGRPPGFLHCASFGDPHVRSFHHHFHTCRVQGAWPLLDNDFLFVQATSSPMALGANATATRKLTIIFKNMQECIDQKVYQAEVDNLPVAFEDGSINGGDRPGGSSLSIQTANPGNHVEIQAAYIGTTIIIRQTAGQLSFSIKVAEDVAMAFSAEQDLQLCVGGCPPSQRLSRSERNRRGAITIDTARRLCKEGLPVEDAYFHSCVFDVLISGDPNFTVAAQAALEDARAFLPDLEKLHLFPSD
Turning to B3, in test [3], the Kd came to 2.8 nM, the dissociation rate constant (koff) was 0.00064 s⁻¹ and the kon was determined as 240000 M⁻¹ s⁻¹. For the same molecule, in test [4], the Kd stood at 2.3 nM, the koff came out at 0.00026 s⁻¹ and the kon was determined as 160000 M⁻¹ s⁻¹. Also, in [5], the Kd was found to be 2.2 nM, the koff stood at 0.00041 s⁻¹ and the association rate constant (kon) came to 190000 M⁻¹ s⁻¹.

B4: full-length extracellular domain of RGMA (Cys48-Arg423) from FreeStyle 293 cells (domain or fragment)
chain: CKILKCNSEFWSATSGSHAPASDDTPEFCAALRSYALCTRRTARTCRGDLAYHSAVHGIEDLMSQHNCSKDGPTSQPRLRTLPPAGDSQERSDSPEICHYEKSFHKHSATPNYTHCGLFGDPHLRTFTDRFQTCKVQGAWPLIDNNYLNVQVTNTPVLPGSAATATSKLTIIFKNFQECVDQKVYQAEMDELPAAFVDGSKNGGDKHGANSLKITEKVSGQHVEIQAKYIGTTIVVRQVGRYLTFAVRMPEEVVNAVEDWDSQGLYLCLRGCPLNQQIDFQAFHTNAEGTGARRLAAASPAPTAPETFPYETAVAKCKEKLPVEDLYYQACVFDLLTTGDVNFTLAAYYALEDVKMLHSNKDKLHLYERTRDLPGR
Consider B4, for which, in test [3], the Kd was determined as 1.3 nM, the off-rate constant (koff) was determined as 0.00052 s⁻¹ and the kon is 420000 M⁻¹ s⁻¹. In addition, in test [4], the Kd stood at 1.7 nM, the off-rate (koff) amounted to 0.00045 s⁻¹ and the kon is 270000 M⁻¹ s⁻¹. Besides, in [5], the Kd is 1.4 nM, the dissociation rate constant (koff) was 0.00042 s⁻¹ and the on-rate constant (kon) is 300000 M⁻¹ s⁻¹.

B5: soluble mature RGMB (Gln49-Gly412) produced in insect cells (domain or fragment)
chain: QQPAQCRIQKCTTDFVSLTSHLNSAVDGFDSEFCKALRAYAGCTQRTSKACRGNLVYHSAVLGISDLMSQRNCSKDGPTSSTNPEVTHDPCNYHSHAGAREHRRGDQNPPSYLFCGLFGDPHLRTFKDNFQTCKVEGAWPLIDNNYLSVQVTNVPVVPGSSATATNKITIIFKAHHECTDQKVYQAVTDDLPAAFVDGTTSGGDSDAKSLRIVERESGHYVEMHARYIGTTVFVRQVGRYLTLAIRMPEDLAMSYEESQDLQLCVNGCPLSERIDDGQGQVSAILGHSLPRTSLVQAWPGYTLETANTQCHEKMPVKDIYFQSCVFDLLTTGDANFTAAAHSALEDVEALHPRKERWHIFPSSG
With B5, in [6], the Fig. S3D: IC50 of soluble RGMB for inhibition of GDF5 (20 nM)-induced alkaline phosphatase expression in ATDC5 cells was 166 nM; the Fig. S3D: inhibitory constant Ki of soluble RGMB (from EC50 and IC50) for GDF5-induced alkaline phosphatase expression in ATDC5 cells stood at 85 nM; the Fig. S3H: IC50 of soluble RGMB for inhibition of GDF5 (10 nM)-induced SMAD signaling (BRE-Luc reporter) in C3H10T1/2 cells is 47 nM. Also, in test [7], the Fig. S3C: IC50 of soluble RGMB for inhibition of BMP2 (10 nM)-induced alkaline phosphatase expression in ATDC5 cells is more than 1500 nM; the Fig. S3C: inhibitory constant Ki of soluble RGMB (Cheng-Prusoff, from EC50 and IC50) for BMP2-induced alkaline phosphatase expression in ATDC5 cells was more than 500 nM; the Fig. S3G: IC50 of soluble RGMB for inhibition of BMP2 (10 nM)-induced SMAD signaling (BRE-Luc reporter) in C3H10T1/2 cells stood at 41 nM. In addition, in [8], the koff came to 0.0025 s⁻¹ and the kon was found to be 1.8e+06 M⁻¹ s⁻¹. For the same molecule, in test [9], the koff came to 0.011 s⁻¹ and the kon came to 5.3e+06 M⁻¹ s⁻¹.

B6: full-length extracellular domain of RGMB (Gln49-Gly412) from FreeStyle 293 cells (domain or fragment)
chain: B5 chain
For B6, the results for the Kd in [3], in [4] and in [5] were 3.7 nM, 1.5 nM and 1.1 nM, respectively. In addition, the koff stood at 0.0016 s⁻¹ in test [3], 0.0015 s⁻¹ in test [4] and 0.0011 s⁻¹ in test [5]. Moreover, the results for the association rate constant (kon) in [3], in test [4] and in test [5] were 420000 M⁻¹ s⁻¹, 1e+06 M⁻¹ s⁻¹ and 1e+06 M⁻¹ s⁻¹, respectively.
